Laboratory results: patent US20140289906A1, “Compositions Having Dicamba Decarboxylase Activity and Methods of Use” (priority 2013, published 2014)
Positions count from the first letter of the chain named. Numbers in names are those of the source. Entries after “also recorded” stand apart in the source; their conditions may differ.

B1: 109 (protein)
chain: MAQGKVALEEHFAIPETLQDSAGFVPGDYWKELQHRLLDIQDTRLKLMDAHGIETMILSLNAPAVQAIPDRRKAIEIARRANDVLAEECAKRPDRFLAFAALPLQDPDAATEELQRCVNDLGFVGALVNGFSQEGDGQTPLYYDLPQYRPFWGEVEKLDVPFYLHPRNPLPQDSRIYDGHPWLLGPTWAFAQETAVHALRLMASGLFDEHPRLNIILGHMGEGLPYMMWRIDHRVAWVKLPPRYPAKRRFMDYFNENFHITTSGNFRTQTLIDAILEIGADRILFSTDWPFENIDHASDWFNATSIAEADRVKIGRTNARRLFKLDGA
modifications: Dicamba decarboxylase variant clone DC.4.032
B2: 111 (protein)
chain: B1 chain with A22M, Q34M, V235M, V238I
modifications: Dicamba decarboxylase variant clone DC.4.112
B3: L38I: point mutation of SEQ ID NO:109 (protein)
chain: B1 chain with L38I
modifications: Dicamba decarboxylase variant clone DC.4.032
B4: 110 (protein)
chain: B1 chain with A22M, Q34M, V235M
modifications: Dicamba decarboxylase variant clone DC.4.111
B5: D42M: point mutation of SEQ ID NO:109 (protein)
chain: B1 chain with D42M
modifications: Dicamba decarboxylase variant clone DC.4.032
B6: 113 (protein)
chain: B1 chain with W30L, Q34F
modifications: Dicamba decarboxylase variant clone DC.4.114
B7: D42S: point mutation of SEQ ID NO:109 (protein)
chain: B1 chain with D42S
modifications: Dicamba decarboxylase variant clone DC.4.032
B8: A328D: point mutation of SEQ ID NO:109 (protein)
chain: B1 chain with A328D
modifications: Dicamba decarboxylase variant clone DC.4.032
B9: G27S: point mutation of SEQ ID NO:109 (protein)
chain: B1 chain with G27S
modifications: Dicamba decarboxylase variant clone DC.4.032
B10: G27T: point mutation of SEQ ID NO:109 (protein)
chain: B1 chain with G27T
modifications: Dicamba decarboxylase variant clone DC.4.032
B11: A328R: point mutation of SEQ ID NO:109 (protein)
chain: B1 chain with A328R
modifications: Dicamba decarboxylase variant clone DC.4.032
B12: D42A: point mutation of SEQ ID NO:109 (protein)
chain: B1 chain with D42A
modifications: Dicamba decarboxylase variant clone DC.4.032
B13: G27A: point mutation of SEQ ID NO:109 (protein)
chain: B1 chain with G27A
modifications: Dicamba decarboxylase variant clone DC.4.032
B14: G52E: point mutation of SEQ ID NO:109 (protein)
chain: B1 chain with G52E
modifications: Dicamba decarboxylase variant clone DC.4.032
B15: G327Q: point mutation of SEQ ID NO:109 (protein)
chain: B1 chain with G327Q
modifications: Dicamba decarboxylase variant clone DC.4.032
B16: 112 (protein)
chain: B1 chain with Q34V
modifications: Dicamba decarboxylase variant clone DC.4.113

How the values were obtained:
[1] = 14C assay: 14CO2 capture from [14C]-carboxyl-labeled dicamba with purified protein; assay type: biochemical
[2] = LC-MS/MS detection of 4-chloro-3-methoxy phenol; assay type: biochemical; conditions: purified protein, dicamba
Description: The decarboxylated and chloro hydrolyzed product, 4-chloro-3-methoxy phenol (FIG. 1D), is measured using a LC-MS/MS analytical procedure. […] 10 ul is removed from the reaction mixture and mixed with 90 ul pre-chilled methanol followed by centrifugation at 14,000 rpm for 15 min at 4° C. 10 ul of the supernatant is then transferred into 170 ul ddH2O to achieve 5% methanol solution for injection. 50 ul of the prepared sample is injected into a 4000 Q Trap LC-MS/MS system for sample analysis. LC-MS/MS parameters are: Mobile Phase A, 2 mM ammonium acetate in water; Mobile Phase B, 2 mM ammonium acetate in methanol; Column, Aquasil, 100×2.1 mm, 3 μm, C18 column; Flow Rate, 0.6 ml/min. The MS/MS fragment 157/142 which is common to 4-chloro-3-methoxy phenol, 2-chloro-5-methoxy phenol, and 3-chloro-5-methoxy phenol is monitored at a retention time of 2.88 min.

[3] = GC/MS detection of 2,5-dichloro phenol (2,5-DCP); kinetic determination; assay type: biochemical; conditions: purified protein, dicamba
Description: The decarboxylated and demethylated product of dicamba, 2,5-dichloro phenol or 2,5-DCP (FIG. 1E) is measured using a GC/MS analytical procedure with either liquid injection after liquid/liquid extraction using toluene as the extraction solvent or gas injection using head space method. The head space sample analysis is carried out on an Agilent GC/MS system with a 6890A GC, a 5973N MSD and a CTC CombiPAL auto-sampler or with a 7890A GC, a 5975C MSD and an Agilent GC Sampler 80 auto-sampler with Phenomenex ZB-MultiResidue-1 column (30 m length, 0.25 mm diameter, 0.25 um film) or equivalent. GC/MS parameters are: GC inlet temperature, 200° C.; Carry gas, helium in constant flow mode (1.2 mL/min); Oven temperature program, 70° C. for 1 min and then ramp to 275° C. at 40° C./min. […] The reaction vial is transferred to a agitator for incubation at 90° C. for 4 min at 500 rpm. With a syringe preheated at 110° C., 1000 uL of head space is injected with sample fill speed at 100 uL/sec. A 2-mm diameter liner is used in sample inlet. The MS data acquisition is done in SIM (selected ion monitoring) mode. The positive ion at M/Z 162 for the molecular ion of 2,-5-DCP is monitored at retention time of 4.06 min. Solvent delay for MS acquisition is set at 3 min. GC/MS parameters for liquid sample analysis are the same as those for head space analysis, except that the volume of liquid injection is 1 uL.

[4] = Dicamba decarboxylation activity of computationally designed protein variants and parents (Tables 4, 5); conditions: native proteins and designed variants; assay not specified
[5] = 14C assay: 14CO2 capture from [14C]-carboxyl-labeled dicamba with IPTG-induced recombinant E. coli cells; conditions: dicamba decarboxylation activity
[6] = Saturation mutagenesis of SEQ ID NO:109: dicamba decarboxylation activity of point mutants (Table 7)
[7] = dicamba decarboxylation activity of point mutants of SEQ ID NO: 109 from NNK saturation mutagenesis, 0.7-fold used as cut-off
[8] = point mutant of SEQ ID NO:109, dicamba decarboxylation activity relative to the unchanged template

Molecule | CO2 product detected [1] | 4-chloro-3-methoxy phenol product detected [2] | 2,5-DCP product detected [3] | dicamba decarboxylase activity (statement in the description) [4] | Enzymatic Detection level [5] | Average Activity (Fold of SEQ ID NO: 109) [6, 7] | Average Activity (Fold of SEQ ID NO: 109) [6, 8]
B1 | detected | detected | detected | more active than their parent sequence; also recorded: displays an increase in dicamba decarboxylase activity | High | – | –
B2 | detected | detected | detected | displays an increase in dicamba decarboxylase activity | High | – | –
B3 | – | – | – | – | – | 2.0 Fold of SEQ ID NO: 109 | 2.0 Fold of SEQ ID NO: 109
B4 | detected | detected | detected | displays an increase in dicamba decarboxylase activity | High | – | –
B5 | – | – | – | – | – | 2.4 Fold of SEQ ID NO: 109 | 2.4 Fold of SEQ ID NO: 109
B6 | detected | detected | detected | displays an increase in dicamba decarboxylase activity | High | – | –
B7 | – | – | – | – | – | 2.0 Fold of SEQ ID NO: 109 | –
B8 | – | – | – | – | – | 2.3 Fold of SEQ ID NO: 109 | 2.3 Fold of SEQ ID NO: 109
B9 | – | – | – | – | – | 2.2 Fold of SEQ ID NO: 109 | 2.2 Fold of SEQ ID NO: 109
B10 | – | – | – | – | – | 2.0 Fold of SEQ ID NO: 109 | –
B11 | – | – | – | – | – | 3.0 Fold of SEQ ID NO: 109 | –
B12 | – | – | – | – | – | 2.0 Fold of SEQ ID NO: 109 | –
B13 | – | – | – | – | – | 2.0 Fold of SEQ ID NO: 109 | –
B14 | – | – | – | – | – | 3.1 Fold of SEQ ID NO: 109 | 3.1 Fold of SEQ ID NO: 109
B15 | – | – | – | – | – | 2.8 Fold of SEQ ID NO: 109 | 2.8 Fold of SEQ ID NO: 109
B16 | detected | detected | detected | displays an increase in dicamba decarboxylase activity | High | – | –
